Test [1] addresses HLA-B*18:01. Nature of the test: IEDB peptide-MHC binding, purified MHC/direct/fluorescence; filed as Kd, often an IC50 or EC50 that approximates it; ≥ and ≤ were set here for values at or beyond the usual limits of such assays.
Test [2] concerns the target HLA-B*15:17. The description is as above.
For test [3], the target named is HLA-A*02:01. Described as above.
Test [4] concerns the target HLA-B*51:01. Described as above.
For test [5], the target named is HLA-A*02:11. The description is as above. The settings on record: source organism: Cryptosporidium parvum Iowa II.
Test [6] has as its target HLA-A*03:01. The description is as above.
Test [7] deals with HLA-B*27:03. Described as above. The following applies: source organism: Cryptosporidium parvum Iowa II.
For test [8], the target named is HLA-A*02:19. The test is described as above. The following applies: source organism: Cryptosporidium parvum Iowa II.
For test [9], the target named is HLA-A*26:01. The test is described as above. The following applies: source organism: Cryptosporidium parvum Iowa II.
Test [10] deals with HLA-A*29:02. The description is as above. The settings on record: source organism: Cryptosporidium parvum Iowa II.
The target in test [11] is HLA-A*02:12. The test is described as above. The settings on record: source organism: Cryptosporidium parvum Iowa II.
Test [12] addresses HLA-A*69:01. The test is described as above.
Test [13] has as its target HLA-A*68:02. The test is described as above. The settings on record: source organism: Cryptosporidium parvum Iowa II.
Test [14] deals with HLA-B*57:01. The test is described as above.
Test [15] addresses HLA-A*24:03. The description is as above. The following applies: source organism: Cryptosporidium parvum Iowa II.
Test [16] concerns the target HLA-A*02:03. The description is as above. The following applies: source organism: Cryptosporidium parvum Iowa II.
Test [17] has as its target HLA-B*15:01. Described as above.
In test [18] the target is HLA-B*46:01. The test is described as above.
The target of test [19] is HLA-A*02:16. Described as above. The following applies: source organism: Cryptosporidium parvum Iowa II.
Test [20] addresses HLA-A*02:01. Nature of the test: IEDB peptide-MHC binding, purified MHC/competitive/fluorescence; filed as Kd, often an IC50 or EC50 that approximates it; ≥ and ≤ were set here for values at or beyond the usual limits of such assays. The following applies: source organism: Human immunodeficiency virus 1.
For test [21], the target named is HLA-B*08:01. The description is as above. The following applies: source organism: Human immunodeficiency virus 1.
Test [22] addresses HLA-B*15:09. The description is as above.
In test [23] the target is HLA-A*02:06. Described as above. The following applies: source organism: Human immunodeficiency virus 1.
For test [24], the target named is HLA-A*26:02. Described as above. The settings on record: source organism: Human immunodeficiency virus 1.
Test [25] concerns the target HLA-A*26:01. The test is described as above. The settings on record: source organism: Human immunodeficiency virus 1.
The target in test [26] is HLA-A*68:02. The test is described as above.
Test [27] addresses HLA-A*02:03. Described as above. The following applies: source organism: Human immunodeficiency virus 1.
Test [28] concerns the target HLA-A*30:01. Described as above.
For test [29], the target named is HLA-B*07:02. The description is as above. The settings on record: source organism: Human immunodeficiency virus 1.
Test [30] has as its target HLA-B*15:17. The test is described as above. The settings on record: source organism: Vaccinia virus Copenhagen.
The target in test [31] is HLA-B*39:01. The description is as above. The following applies: source organism: Vaccinia virus Copenhagen.
Test [32] addresses HLA-A*26:03. Kind of test: IEDB peptide-MHC binding, purified MHC/direct/fluorescence; filed as Kd, often an IC50 or EC50 that approximates it; ≥ and ≤ were set here for values at or beyond the usual limits of such assays. The following applies: source organism: Variola virus.
Test [33] concerns the target HLA-B*40:01. Described as above.
Test [34] has as its target HLA-A*01:01. The test is described as above.
Test [35] addresses HLA-B*48:01. The test is described as above.
Test [36] concerns the target HLA-B*27:05. The test is described as above.
Test [37] deals with HLA-B*44:02. Described as above. The following applies: source organism: Camelpox virus M-96.
The target of test [38] is HLA-B*58:01. The description is as above.
Test [39] deals with HLA-A*31:01. The test is described as above.
In test [40] the target is HLA-B*07:02. Described as above.
Test [41] addresses HLA-A*11:01. The description is as above.
Test [42] addresses HLA-A*69:01. Kind of test: IEDB peptide-MHC binding, purified MHC/competitive/fluorescence; filed as Kd, often an IC50 or EC50 that approximates it; ≥ and ≤ were set here for values at or beyond the usual limits of such assays. The settings on record: source organism: Bacillus anthracis str. A0488.
The target in test [43] is HLA-A*30:01. Nature of the test: IEDB peptide-MHC binding, purified MHC/direct/fluorescence; filed as Kd, often an IC50 or EC50 that approximates it; ≥ and ≤ were set here for values at or beyond the usual limits of such assays. The settings on record: source organism: Bacillus cereus 03BB108.
Test [44] deals with HLA-B*38:01. Described as above. The settings on record: source organism: Bacillus cereus 03BB108.
The mark [45] stands for this setting: source organism: Cryptosporidium parvum Iowa II.
Setting [46] is: source organism: Human immunodeficiency virus 1.
Where [47] appears, read: source organism: Vaccinia virus Copenhagen.
Where [48] appears, read: source organism: Camelpox virus M-96.
Where [49] appears, read: source organism: Bacillus anthracis.

We go through 4 sequences from the Immune Epitope Database (IEDB).

Take DHIPIINTL: the Kd in [1] (setting [45]), in [2] (setting [45]), in test [3] (setting [45]), in test [4] (setting [45]), in test [5] and in test [6] (setting [45]) was at least 20 µM in each case. The Kd in [7], in test [8], in [9], in test [10], in [11] and in test [12] (setting [45]) was at least 20 µM throughout. Moreover, the equilibrium dissociation constant (Kd) in test [13], in [14] (setting [45]), in test [15], in test [16], in test [17] (setting [45]) and in [18] (setting [45]) was at least 20 µM throughout. In test [19], this sequence gave a Kd of at least 20 µM.
With EIKSLFNTI, the equilibrium dissociation constant (Kd) in test [20] was at least 20 µM; in test [21], 1.62 µM; in test [22] (setting [46]), at least 20 µM; in [23] it was 0.0617 µM; in [24], at least 20 µM; in test [25] it was at least 20 µM. In addition, the dissociation constant Kd is 0.036 µM in [26] (setting [46]), at least 20 µM in test [27], at least 20 µM in test [28] (setting [46]) and 6 µM in test [29].
Take LEYGANYFL: the dissociation constant (Kd) was at least 20 µM in [30]; at least 20 µM in [22] (setting [47]); 3 µM in test [31]; 2.26 µM in test [26] (setting [47]); at least 20 µM in test [28] (setting [47]); 0.0117 µM in test [1] (setting [48]). The Kd in test [32] is at least 20 µM; in [33] (setting [48]) it was 0.0033 µM; in test [34] (setting [48]) it was at least 20 µM; in test [35] (setting [48]) it was 4.39 µM; in test [36] (setting [48]), at least 20 µM; in [37] it was at least 20 µM. In addition, the Kd in test [12] (setting [48]) was 1.6 µM; in test [38] (setting [48]), at least 20 µM; in [14] (setting [48]), at least 20 µM; in [39] (setting [48]), at least 20 µM; in test [40] (setting [48]) it was at least 20 µM; in [41] (setting [48]), at least 20 µM.
Turning to WFREDRSPV, the Kd in [22] (source organism: Bacillus anthracis str. A0488) was at least 20 µM; in test [42], at least 20 µM; in test [1] (setting [49]), 0.145 µM; in test [2] (setting [49]), at least 20 µM; in test [33] (setting [49]), at least 20 µM; in test [3] (setting [49]), at least 20 µM. For the same sequence, the Kd in test [34] (setting [49]), in test [35] (setting [49]), in test [4] (setting [49]), in [6] (setting [49]), in test [36] (setting [49]) and in test [38] (setting [49]) was at least 20 µM each time. The dissociation constant (Kd) in test [14] (setting [49]), in [39] (setting [49]), in [17] (setting [49]), in test [43], in [18] (setting [49]) and in test [44] was at least 20 µM each time. In addition, the equilibrium dissociation constant (Kd) in [40] (setting [49]) and in test [41] (setting [49]) was at least 20 µM in each case.

The term Kd denotes the constant that tells how readily two partners part at equilibrium. A high value points to lower affinity.
